In PMC10280071, “Allelic variation in the indoleacetic acid-lysine synthase gene of the bacterial pathogen Pseudomonas savastanoi and its role in auxin production” (Frontiers in Plant Science, 2023):

What was measured:
IaaLPsf-3 = system: T1, IaaLPsf-3; test: coupled continuous spectrophotometric assay of AMP formation (myokinase/pyruvate kinase/lactate dehydrogenase, NADH at […] nm); assay type: biochemical, Pseudomonas savastanoi; details: 1 mM ATP, 3 mM MgCl2, 100 mM KCl, 50 mM Tris-HCl pH 8.0, 25 °C
T1 construct: wild-type full-length ORF in pET28a, His6-tagged (C-terminal in methods, N-terminal in results), tag not cut, E. coli BL21

O=C(O)Cc1c[nH]c2ccccc12 = test: purified protein; details: 5 mM lysine fixed, IAA 0.05-10 mM, 1 mM ATP, 3 mM MgCl2, 100 mM KCl, 50 mM Tris-HCl pH 8.0, 25 °C

`O=C(O)Cc1c[nH]c2ccccc12` [IAA] was tested. Which Km (IaaLPsf-3; 5 mM lysine fixed, IAA 0.05-10 mM) did it give?
Its Km is 836 ± 142 µM.

With `NCCCC[C@H](N)C(=O)O` [Lys] as the molecule, how does the Km (IaaLPsf-3; 1 mM IAA fixed, lysine 0.01-10 mM) read?
Its Km is 320 ± 45 µM.

Which results are given for “IaaLPsn-1 (Pseudomonas savastanoi pv. nerii)”?
Km (O=C(O)Cc1c[nH]c2ccccc12): 617 ± 158 µM; Vmax (O=C(O)Cc1c[nH]c2ccccc12): 0.0106 µmol/min/mg; Vmax/Km (O=C(O)Cc1c[nH]c2ccccc12): 17.2 µL/min/mg
